Target: Human 20.2 + 18mer
Assay: ELISA, well supernatant on coated peptides

Row | ELISA reading | Binder
1 | 0.4 | antibody in the supernatant of B cell culture well 250F2 (antibody, V domains shown) VH: QVQLVESGGDLVKPGGSLRLSCAASGFSFSGYYLSWIRQAPGKGLEWVSYISLSGSFIKYADSVKGRFTISRDNAKKTLHLQMNSLRAEDTAVYYCARRTGTTTVFDYWGQGTLVTVSS VL: EVVMTQSPATLSVSPGERATLSCRASQSVNSNLAWYQQRPGQAPRLLIYGASTRVTGIPARFSGSGSGTEFTLTISSLQSEDFAVYYCQQYNNWPLTFGGGTKVEIK
2 | 0.5 | antibody in the supernatant of B cell culture well 283B2 (antibody, V domains shown) VH: QVQLVESGGGLVKPGGSLRLSCAASGFTFNVYYMNWIRQAPGKGLEWVSYISTSSSAIYYADSVKGRFTISRDNAKNSLYLQMNSLRAEDTAVYYCARRTGSTTVFDYWGQGTLVTVSS VL: EIVLTQSPATLSVSPGERATLSCRASQSINNNLAWYQQKPGQAPRLLIYGASTRATGIPAKFSGSGSGTEFTLTISSLQSENFAVYYCQQYNKWPLTFGGGTKVEIK
3 | 1.7 | antibody in the supernatant of B cell culture well 170B8 (antibody, V domains shown) VH: AVQLLESGGGLIQPGGSLRLSCAASGFTFSSYAMSWVRQAPGKGLEWVSAISGSGGSTFYADSVRGRFTISRDNSKNTLYLQMNSLRVEDTAVYYCAKEVMGPIFFDYWGQGTLVTVSS VL: EIVLTQSPGTLSLSPGERATLSCRASQSIISSALAWYQQKPGQAPRLLIYGASSRATGIPDRFSGSGSGTDFTLTISRLEPEDFAVYHCQQYGSTPLTFGGGTKVEIK

— patent publication US20030232009A1
